This assay deals with GST-syntaxin-1 (UniProt P32851). Briefly: pull-down.
Chain of GST-syntaxin-1 (P32851 1-265): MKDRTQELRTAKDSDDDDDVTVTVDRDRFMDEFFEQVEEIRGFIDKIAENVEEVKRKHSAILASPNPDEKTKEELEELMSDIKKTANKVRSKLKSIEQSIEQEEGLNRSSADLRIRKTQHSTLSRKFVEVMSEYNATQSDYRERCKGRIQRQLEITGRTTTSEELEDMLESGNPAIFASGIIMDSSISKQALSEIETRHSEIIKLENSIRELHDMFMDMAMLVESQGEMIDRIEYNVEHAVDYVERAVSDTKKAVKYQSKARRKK

In the case of “MBP-tomosyn phosphorylated by PKA (natural protein)”, the Kd (in general, the free concentration of one partner at which half of the binding sites on the other are occupied at equilibrium, for simple one-to-one binding) was 330 nM and the percent of the total input bound is 20%.

Regarding MBP-tomosyn-S724D (natural protein), the amount bound in comparison with MBP-tomosyn was 35%.

“MBP-tomosyn (nonphosphorylated form) (natural protein)” gave a Kd of 60 nM and a percent of the total input bound of 60%.

For the origin of these results see publication PMC2171531.
